In patent publication US7361485:

Columns and labels:
[1] = target: T1, modified pro-caspase-3 with an aggrecanase recognition sequence, P42574
T1 chain: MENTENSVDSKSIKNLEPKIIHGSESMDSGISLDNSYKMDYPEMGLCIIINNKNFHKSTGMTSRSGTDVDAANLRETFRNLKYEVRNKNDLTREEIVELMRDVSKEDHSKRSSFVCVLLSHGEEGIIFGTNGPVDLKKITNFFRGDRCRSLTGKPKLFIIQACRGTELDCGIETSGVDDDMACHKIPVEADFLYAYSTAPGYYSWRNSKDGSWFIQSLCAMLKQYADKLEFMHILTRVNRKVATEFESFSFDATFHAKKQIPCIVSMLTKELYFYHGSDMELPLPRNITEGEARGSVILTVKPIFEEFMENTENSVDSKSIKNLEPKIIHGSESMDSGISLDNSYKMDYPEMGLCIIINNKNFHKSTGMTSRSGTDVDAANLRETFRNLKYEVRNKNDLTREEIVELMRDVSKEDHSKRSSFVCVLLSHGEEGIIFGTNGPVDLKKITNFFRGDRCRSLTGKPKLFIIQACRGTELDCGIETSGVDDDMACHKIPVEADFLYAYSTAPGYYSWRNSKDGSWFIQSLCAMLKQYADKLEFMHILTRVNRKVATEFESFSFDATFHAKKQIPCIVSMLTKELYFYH

[2] = target: T2, modified pro-caspase-7 with an aggrecanase activation sequence, P55210
T2 chain: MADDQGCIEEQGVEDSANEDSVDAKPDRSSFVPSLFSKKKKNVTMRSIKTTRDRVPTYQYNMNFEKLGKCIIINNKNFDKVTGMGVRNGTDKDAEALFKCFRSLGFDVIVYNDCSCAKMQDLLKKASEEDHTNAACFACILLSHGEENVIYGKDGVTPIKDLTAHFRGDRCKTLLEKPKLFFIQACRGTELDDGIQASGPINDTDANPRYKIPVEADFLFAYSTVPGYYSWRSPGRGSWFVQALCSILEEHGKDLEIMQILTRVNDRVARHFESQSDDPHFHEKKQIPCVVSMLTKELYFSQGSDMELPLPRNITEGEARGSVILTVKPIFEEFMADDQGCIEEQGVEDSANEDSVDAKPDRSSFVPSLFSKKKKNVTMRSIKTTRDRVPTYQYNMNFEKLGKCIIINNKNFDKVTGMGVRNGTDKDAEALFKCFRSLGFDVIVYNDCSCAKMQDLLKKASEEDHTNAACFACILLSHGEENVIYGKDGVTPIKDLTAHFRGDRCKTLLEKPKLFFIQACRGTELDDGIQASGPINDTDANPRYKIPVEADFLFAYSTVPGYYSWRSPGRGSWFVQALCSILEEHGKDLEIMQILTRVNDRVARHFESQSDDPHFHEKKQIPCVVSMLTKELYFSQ

B1: aggrecanase (ADAMTS-4) (protein)
chain: FASLSRFVETLVVADDKMAAFHGAGLKRYLLTVMAAAAKAFKHPSIRNPVSLVVTRLVILGSGEEGPQVGPSAAQTLRSFCAWQRGLNTPEDSDPDHFDTAILFTRQDLCGVSTCDTLGMADVGTVCDPARSCAIVEDDGLQSAFTAAHELGHVFNMLHDNSKPCISLNGPLSTSRHVMAPVMAHVDPEEPWSPCSARFITDFLDNGYGHCLLDKPEAPLHLPVTFPGKDYDADRQCQLTFGPDSRHCPQLPPPCAALWCSGHLNGHAMCQTKHSPWADGTPCGPAQACMGGRCLHMDQLQDFNIPQAGGWGPWGPWGDCSRTCGGGVQFSSRDCTRPVPRNGGKYCEGRRTRFRSCNTEDCPTGSALTFREEQCAAYNHRTDLFKSFPGPMDWVPRYTGVAPQDQCKLTCQAQALGYYYVLEPRVVDGTPCSPDSSSVCVQGRCIHAGCDRIIGSKKKFDKCMVCGGDGSGCSKQSGSFRKFRYGYNNVVTIPAGATHILVRQQGNPGHRSIYLALKLPDGSYALNGEYTLMPSPTDVVLPGAVSLRYSGATAASETLSGHGPLAQPLTLQVLVAGNPQDTRLRYSFFVPRPTPSTPRPTPQDWLHRRAQILEILRRRPWAGRK
- caspase activity (DEVD-pNA, A405) [1]: Upon incubation of the various pro-caspase variants with their respective target enzymes a clear increase in caspase activity was observed.
- caspase activity (DEVD-pNA, A405) [2]: Upon incubation of the various pro-caspase variants with their respective target enzymes a clear increase in caspase activity was observed.
